Target: Sar1p (yeast, UniProt P20606 1-190)
Experiment: pull-down

Sar1p, sequence (P20606 whole entry): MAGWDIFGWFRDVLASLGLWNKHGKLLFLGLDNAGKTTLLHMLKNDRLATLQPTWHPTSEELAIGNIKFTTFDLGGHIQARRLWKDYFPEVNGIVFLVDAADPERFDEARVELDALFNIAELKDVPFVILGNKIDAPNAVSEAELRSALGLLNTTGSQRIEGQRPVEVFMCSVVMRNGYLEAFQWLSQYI

binding result: binds
Binder: MRRRSRC [GalNAcT2 cytoplasmic domain peptide (wild type, MRRRSRC)]
